# Reference: the RNAGym collection of RNA variant scans (doi:10.7554/elife.80360)
# B1: HDV Ribozyme (parent)
# chain: GGCCGGCAUGGUCCCAGCCUCCUCGCUGGCGCCGGCUGGGCAACAUUCCGAGGGGACCGUCCCCUCGGUAAUGGCGAAUGGGACCCA
# Variants of: B1
# Experiment: self-cleavage, relative activity (ratio to wild type); higher = more cleavage; co-transcriptional
row,Variant,self-cleavage
1,C7U C41A,0.571
2,C7U A45C,0.119
3,C7U A45U,0.415
4,C7A C15A,0.0415
5,C7G C41A,0
6,C7G C41U,0.0615
7,C7G C41G,0.128
8,C7U C33A,0.0831
9,C7U G29U,0.157
10,C7U G29A,0.0906
11,C7U G29C,0.185
12,C7G G39U,0
13,C7U A83C,0.287
14,C7U A83G,0.475
15,C7A G10A,0.0831
16,C7A C22G,0.0791
17,C7U C84U,0.686
18,C7G C75U,0
19,C7G C75A,0
20,C7A U37G,0.246
21,C7G A77C,0.0692
22,C7A C44A,0.0978
23,C7A G52C,0.482
24,C7A G82A,0.0875

row,Variant,self-cleavage
1,C7A G82U,0.256
2,C7A G82C,0.0811
3,C7A G68C,0.341
4,C7U U20A,0.0594
5,C7G G67U,0.302
6,C7G G67A,0.128
7,C7A C58U,0.731
8,C7A C58G,0.705
9,C7G C26A,0.138
10,C7G C26G,0.369
11,C7U G68C,0.704
12,C7U G68A,0.969
13,C7A U23C,0.935
14,C7A U23A,0.739
15,C7G A16C,0.151
16,C7G A16U,0.0692
17,C7G A16G,0.0978
18,C7A C49A,0.538
19,C7A G38A,0.0639
20,C7A G38U,0.0346
21,C7A G81A,0.0302
22,C7U C63G,0.569
23,C7U C63A,0.751
24,C7G A87C,0.211

row,Variant,self-cleavage
1,C7G A87G,0.381
2,C7G G82A,0.113
3,C7G C44G,0.0755
4,C7G A45C,0
5,C7G A71U,0.0639
6,C7G C86G,0.378
7,C7A G54A,0.504
8,C7A G54U,0.609
9,C7A C85A,0.453
10,C7A C85U,0.807
11,C7G C22A,0
12,C7U A71U,0.677
13,C7U A71G,0.931
14,C7U A71C,0.322
15,C7U C24A,0.256
16,C7G G54A,0.302
17,C7G G54C,0.415
18,C7G G54U,0.219
19,C7G C64G,0.111
20,C7G C64A,0.0831
21,C7G C64U,0.396
22,C7A C75A,0.0923
23,C7A C75G,0.225
24,C7A C75U,0.131

row,Variant,self-cleavage
1,C7G C19U,0
2,C7G C18G,0
3,C7G C18A,0.0639
4,C7G G74U,0.0361
5,C7U C22A,0.261
6,C7U C22G,0.0678
7,C7A U27G,0.447
8,C7A U27A,0.609
9,C7U A43G,0.19
10,C7U A43C,0.26
11,C7U A43U,0.475
12,C7G C85G,0.237
13,C7G C85U,0.32
14,C7A G17U,0.162
15,C7A G17A,0.0475
16,C7A G17C,0
17,C7U G67C,0.529
18,C7A U47G,0.317
19,C7A U47C,0.277
20,C7A C57U,0.702
21,C7A C57A,0.597
22,C7U G25U,0.203
23,C7G G76U,0.237
24,C7G G76A,0.172

row,Variant,self-cleavage
1,C7U G55U,0.815
2,C7G A56G,0.208
3,C7G A56C,0.391
4,C7U C64G,0.892
5,C7U C64U,0.68
6,C7G G80C,0
7,C7G G80U,0.0462
8,C7U C75U,0.0978
9,C7U C58G,1.02
10,C7U G76C,0.815
11,C7U C21U,0.0652
12,C7U C21G,0.0739
13,C7U C21A,0.0314
14,C7G G31U,0.745
15,C7U A87G,0.91
16,C7A C41A,0.342
17,C7A C41G,0
18,C7A G29C,0.0707
19,C7A G29U,0.0875
20,C7A U12A,0.0978
21,C7A U12C,0.172
22,C7G G25U,0.0831
23,C7G A78G,0.0831
24,C7G A78U,0.0791

row,Variant,self-cleavage
1,C7G A78C,0.175
2,C7A G50A,0.527
3,C7U G73A,0.424
4,C7U G73U,0.277
5,C7U G73C,0.224
6,C7A C48A,0.604
7,C7G G35U,0.0811
8,C7U G39A,0.3
9,C7U G39U,0.289
10,C7U G11C,0.119
11,C7G U60G,0.256
12,C7G U60C,0.383
13,C7U C57A,0.979
14,C7U C57U,0.927
15,C7A C24U,0.306
16,C7A C24A,0.125
17,C7A G39C,0
18,C7G C14U,0.196
19,C7G C14A,0.0923
20,C7U U9C,1.02
21,C7A U60C,0.712
22,C7A U60A,0.665
23,C7A U60G,0.356
24,C7U G80C,0.0773

row,Variant,self-cleavage
1,C7U G80A,0.164
2,C7G G68U,0.285
3,C7G G68C,0.0504
4,C7A C66G,0.243
5,C7U G54A,0.787
6,C7A U20G,0.312
7,C7A U20C,0
8,C7G G81C,0
9,C7G G81A,0.0594
10,C7U C61A,0.87
11,C7A C14U,0.447
12,C7A C14G,0
13,C7U G74C,0.325
14,C7G U37A,0.147
15,C7U C19G,0.0528
16,C7U C19U,0.0519
17,C7U C26A,0.91
18,C7U C26G,0.534
19,C7U C26U,0.867
20,C7A C36A,0.0923
21,C7A C36U,0.203
22,C7A C13A,0.185
23,C7U C85G,0.985
24,C7U C85U,0.886

row,Variant,self-cleavage
1,C7G U23A,0.227
2,C7G U23G,0.217
3,C7G C48A,0.262
4,C7G A43G,0
5,C7G A43C,0.111
6,C7G C58G,0.293
7,C7G C58A,0.506
8,C7U G31C,0.727
9,C7U G31A,0.876
10,C7A G74C,0.131
11,C7U C15A,0.256
12,C7U C15U,0.674
13,C7G G59C,0.404
14,C7G G59A,0.332
15,C7G C33G,0.237
16,C7U A77G,0.434
17,C7A C63A,0.489
18,C7A C63G,0.35
19,C7A C62G,0.0665
20,C7A C62A,0.618
21,C7G C49G,0.123
22,C7G C49U,0.237
23,C7G C49A,0.145
24,C7G C66A,0.161

row,Variant,self-cleavage
1,C7G G52A,0.151
2,C7A G73A,0.106
3,C7G C61U,0.237
4,C7U C66G,0.974
5,C7U C66A,0.776
6,C7G A70U,0.475
7,C7G A83C,0.175
8,C7G A83G,0.17
9,C7A C86U,0.831
10,C7A C86A,0.804
11,C7A C86G,0.571
12,C7G U47G,0
13,C7U C49G,0.665
14,C7A U65C,0.522
15,C7A U72G,0
16,C7A U72A,0.308
17,C7A U72C,0.196
18,C7U A16U,0.643
19,C7U A16G,0.72
20,C7U A8C,0.917
21,C7A G28U,0.0361
22,C7U G38C,0.0462
23,C7U A51G,0.965
24,C7A G35A,0.0841

row,Variant,self-cleavage
1,C7A G35U,0.0906
2,C7G G10A,0.128
3,C7A G76C,0.988
4,C7G G38C,0.0594
5,C7A U9C,0.604
6,C7U C30G,0
7,C7U C30A,0.369
8,C7G U12C,0.111
9,C7U G82A,0.251
10,C7U G82U,0.0678
11,C7G C24G,0.123
12,C7G C24A,0.208
13,C7U C14G,0.308
14,C7U C14A,0.516
15,C7A U79C,0.128
16,C7A G34A,0.175
17,C7A G34C,0
18,C7A G34U,0
19,C7A C84A,0.519
20,C7G C21G,0
21,C7G C21A,0
22,C7G C57G,0.208
23,C7G C57U,0.383
24,C7U C62U,0.831

row,Variant,self-cleavage
1,C7U C62G,0.643
2,C7A G40C,0.102
3,C7G A51C,0.437
4,C7G A51U,0.107
5,C7A A78G,0.0875
6,C7A A78C,0.0554
7,C7U G52C,0.849
8,C7U G52U,0.562
9,C7A G80C,0.192
10,C7U G40A,0.752
11,C7U G40C,0.166
12,C7A C61U,0.441
13,C7A C21U,0
14,C7A C21A,0.0791
15,C7A C21G,0
16,C7U C44A,0.403
17,C7U A70U,0.748
18,C7A A87C,0.514
19,C7A G25U,0.102
20,C7A G25A,0.175
21,C7G C15G,0
22,C7G C15A,0
23,C7G C15U,0.0978
24,C7U C18U,0.277

row,Variant,self-cleavage
1,C7G A42C,0.208
2,C7U G10U,0.374
3,C7A A83C,0.0923
4,C7G G50A,0.612
5,C7G G50U,0.237
6,C7U G34U,0.0923
7,C7G U65A,0
8,C7G G53C,0
9,C7U G35U,0.0437
10,C7U G35A,0.109
11,C7G G29A,0
12,C7G G29U,0
13,C7A G67U,0.378
14,C7U G50C,0.689
15,C7G U79C,0.0489
16,C7G U79G,0.104
17,C7A G31A,0.87
18,C7A G31C,1.03
19,C7A G31U,1.07
20,C7A U46C,0.453
21,C7U C86U,0.678
22,C7U C86G,0.617
23,C7U C86A,0.872
24,C7U A78U,0.166

row,Variant,self-cleavage
1,C7U A78G,0.375
2,C7G G55C,0.214
3,C7G G55U,0.17
4,C7G U9G,0.831
5,C7G U9A,0.237
6,C7A G53C,0.38
7,C7U G53C,1.12
8,C7G,0.315
9,C7U,0.86
10,C7A C19U,0.0906
11,C7U G59C,0.848
12,C7G U20G,0.145
13,C7G U20C,0
14,C7G U72A,0.0755
15,C7G U72G,0
16,C7G U46A,0
17,C7G C62U,0.302
18,C7G G17A,0
19,C7G G17U,0
20,C7G C63G,0.201
21,C7G C63A,0.172
22,C7U G17A,0.332
23,C7G C30G,0.119
24,C7G C30U,0.138

row,Variant,self-cleavage
1,C7G C84G,0.0665
2,C7G C84U,0
3,C7A U69C,0.617
4,C7A C18G,0
5,C7G G73C,0
6,C7A G55C,0.778
7,C7A G55U,0.4
8,C7G G11U,0.104
9,C7G G28C,0
10,C7G G28A,0.0536
11,C7G G28U,0.0875
12,C7G C32G,0.115
13,C7G C32U,0.104
14,C7G G34A,0.115
15,C7G G34U,0.0504
16,C7U G28A,0.136
17,C7U G28C,0.237
18,C7A C30A,0.0282
19,C7A C30G,0.0791
20,C7A C30U,0.0396
21,C7U C48A,0.767
22,C7U C48U,0.997
